Measurements from publication PMC3820850.

Tests used:
[1] = molecular target: PfEBA175 FL (entire ectodomain of P. falciparum 3D7 EBA175), Cd4-tagged and enzymatically biotinylated (P. falciparum (3D7)); experiment: SPR; homophilic; biotinylated PfEBA175 FL immobilised on streptavidin chip, soluble PfEBA175 FL as analyte; quantified from the dissociation phase; 37 °C, HBS-EP
[2] = molecular target: native glycophorin-A extracted from human erythrocytes, chemically biotinylated (human) (UniProt P02724); experiment: SPR; kinetic; biotinylated GYPA immobilised on streptavidin chip; analyte injected at 100 μl/min; 37 °C, HBS-EP; nonlinear fit of association and dissociation phases
[3] = molecular target: native glycophorin-A extracted from human erythrocytes, chemically biotinylated (human) (UniProt P02724); experiment: SPR; equilibrium; biotinylated GYPA immobilised on streptavidin chip, biotinylated Cd4 tag as reference; SEC-separated analyte injected at 20 μl/min; BIAcore T100, 37 °C, HBS-EP; steady-state 1:1 fit
[4] = molecular target: PfEBA175 FL (entire ectodomain of P. falciparum 3D7 EBA175), Cd4-tagged and enzymatically biotinylated (P. falciparum (3D7)); experiment: SPR; equilibrium; biotinylated PfEBA175 FL immobilised, serial dilutions of PfEBA175 FL or RII injected; responses at equilibrium as a fraction of calculated Rmax; 37 °C, HBS-EP

Substance	koff [1]	koff [2]	kon [2]	Kd [3]	fold weaker binding affinity to PfEBA175 FL than that of PfEBA175 FL [4]
PfEBA175 FL (entire ectodomain of P. falciparum 3D7 EBA175), Cd4- and hexa-His-tagged, soluble (domain or fragment)	0.04 s⁻¹	0.0968 s⁻¹	860000 M⁻¹ s⁻¹	260 nM	
PfEBA175 RII (region II, tandem DBL domains F1 and F2), Cd4- and hexa-His-tagged, soluble (domain or fragment)				2520 nM	70 fold
